Assay results taken from PMC3427180, “Zea mays Taxilin Protein Negatively Regulates Opaque-2 Transcriptional Activity by Causing a Change in Its Sub-Cellular Distribution” (PLoS ONE, 2012).

Molecular target: T1, Full length Zea mays Opaque-2 (ZmO2) fused to the GAL4 DNA binding domain (Zea mays, UniProt P12959 1-453)
T1 sequence (looked up): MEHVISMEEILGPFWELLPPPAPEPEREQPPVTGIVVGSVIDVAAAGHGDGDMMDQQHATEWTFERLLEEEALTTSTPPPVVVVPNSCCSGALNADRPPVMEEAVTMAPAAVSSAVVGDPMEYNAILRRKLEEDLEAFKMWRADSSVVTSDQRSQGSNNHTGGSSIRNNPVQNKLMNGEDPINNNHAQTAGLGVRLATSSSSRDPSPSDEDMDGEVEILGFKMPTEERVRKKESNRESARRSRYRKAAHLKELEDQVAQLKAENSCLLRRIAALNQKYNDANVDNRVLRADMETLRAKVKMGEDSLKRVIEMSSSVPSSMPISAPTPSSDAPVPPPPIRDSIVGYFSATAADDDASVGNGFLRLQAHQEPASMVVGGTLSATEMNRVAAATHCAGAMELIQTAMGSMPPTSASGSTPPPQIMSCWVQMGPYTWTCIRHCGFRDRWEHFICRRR
Test: cell-based or functional assay

B1: Full length ZmTaxilin fused to the GAL4 activation domain (natural protein, Zea mays, UniProt C0P5X2 1-425, looked up)
chain: MEGSPVARLPEANSLPDGFVPDSESSDTDAAPPSSAPIVDDAIDSDSPDATNPGGEETLSDPSLPASTAEDASSAAAAEALDTLCLDVVADPERALGEHGPTTAARGEGSLKENRASEQVGAPSDQKVVKGSGEPKRKVIKHSKLEKDKELFQLAQQYHKVVAERDQAIAVKDRLESLCREFQRQNKMLKEECQRVSTEGQNMRTELSEKFDHAIKGVSAKLEEQRVERISQLEENNTLRSKLKDLADQYNITQQKYAHQLKEKMLELELADLRLQQHQEKAAQEHTQMQLYAEQVSQLMTTEKNLRLQLASDGERFQHFQDALSKSNEVFETYKQEMEKMISVIKNLKKENEFLKGKCENSDIAIVKLIEERELTKKQIEKLKNQREKLESLCRTLQAERKQGPSASIPDAPSSQEVSATSQES
- GUS/luciferase ratio from the z1C (22-kD zein) promoter reporter in onion epidermal cells; YFP-O2 co-expressed with CFP-Taxilin against YFP-O2 alone: 47%
